Test results: the supplement of paper PMC9112550, “Optimization of the antimicrobial peptide Bac7 by deep mutational scanning” (BMC Biology, 2022)

Tested on: Escherichia coli TOP10
Assay: shrunken log2 fold change of peptide-encoding DNA abundance (4.5 h post-induction vs induction); higher = less antimicrobial activity (less host growth inhibition)
Details: time post-induction: 4.5 h; library: site-saturation at positions 5, 18, 19, 20
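Note: peptides expressed intracellularly from a pBAD plasmid library in pooled LB shake-flask culture, induced with 0.3% L-arabinose, DNA abundance read by NGS, three biological replicates, DESeq2 with apeglm shrinkage.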

Sequence | shrunken log2 fold change
RRIRKRPPRLPRPRPRPVFWPRP | 0.666
RRIRKRPPRLPRPRPRPVGEPRP | 1.18
RRIRKRPPRLPRPRPRPVHIPRP | -0.021
RRIRKRPPRLPRPRPRPVLNPRP | 0.0304
RRIRKRPPRLPRPRPRPVMGPRP | 0.155
RRIRKRPPRLPRPRPRPVMSPRP | -0.123
RRIRKRPPRLPRPRPRPVNMPRP | 0.113
RRIRKRPPRLPRPRPRPVPCPRP | 0.0663
RRIRKRPPRLPRPRPRPVPIPRP | 0.177
RRIRKRPPRLPRPRPRPVQMPRP | 0.241
RRIRKRPPRLPRPRPRPVQQPRP | 0.368
RRIRKRPPRLPRPRPRPVSGPRP | 0.233
RRIRKRPPRLPRPRPRPVWCPRP | -0.0673
RRIRKRPPRLPRPRPRPVWLPRP | 0.192
RRIRKRPPRLPRPRPRPVWSPRP | -0.0616
RRIRKRPPRLPRPRPRPWCPPRP | 0.0532
RRIRKRPPRLPRPRPRPWCVPRP | -0.00029
RRIRKRPPRLPRPRPRPWDWPRP | 0.504
RRIRKRPPRLPRPRPRPWEAPRP | 0.0326
RRIRKRPPRLPRPRPRPWFAPRP | 0.171
RRIRKRPPRLPRPRPRPWFTPRP | -0.00863
RRIRKRPPRLPRPRPRPWGIPRP | -0.168
RRIRKRPPRLPRPRPRPWIIPRP | -0.277
RRIRKRPPRLPRPRPRPWIYPRP | -0.00162
RRIRKRPPRLPRPRPRPWKMPRP | 0.0749

Sequence | shrunken log2 fold change
RRIRKRPPRLPRPRPRPWLQPRP | -0.0256
RRIRKRPPRLPRPRPRPWLWPRP | 0.00796
RRIRKRPPRLPRPRPRPWMYPRP | -0.122
RRIRKRPPRLPRPRPRPWNAPRP | 0.0384
RRIRKRPPRLPRPRPRPWNMPRP | -0.181
RRIRKRPPRLPRPRPRPWPAPRP | 0.376
RRIRKRPPRLPRPRPRPWQAPRP | 0.000778
RRIRKRPPRLPRPRPRPWQIPRP | 0.141
RRIRKRPPRLPRPRPRPWRCPRP | -0.0463
RRIRKRPPRLPRPRPRPWRHPRP | 0.094
RRIRKRPPRLPRPRPRPWRNPRP | -0.0406
RRIRKRPPRLPRPRPRPWRVPRP | 0.122
RRIRKRPPRLPRPRPRPWSLPRP | 0.0414
RRIRKRPPRLPRPRPRPWSRPRP | -0.0012
RRIRKRPPRLPRPRPRPWSTPRP | 0.0277
RRIRKRPPRLPRPRPRPWVHPRP | -0.0825
RRIRKRPPRLPRPRPRPWVMPRP | -0.251
RRIRKRPPRLPRPRPRPWWHPRP | 0.047
RRIRKRPPRLPRPRPRPWYIPRP | -0.568
RRIRKRPPRLPRPRPRPYADPRP | -0.0355
RRIRKRPPRLPRPRPRPYATPRP | 0.0656
RRIRKRPPRLPRPRPRPYCKPRP | 0.0355
RRIRKRPPRLPRPRPRPYDMPRP | -0.0843
RRIRKRPPRLPRPRPRPYDYPRP | -0.0386
RRIRKRPPRLPRPRPRPYFCPRP | -0.288

Sequence | shrunken log2 fold change
RRIRKRPPRLPRPRPRPYFEPRP | -0.584
RRIRKRPPRLPRPRPRPYFHPRP | -0.225
RRIRKRPPRLPRPRPRPYFNPRP | -0.593
RRIRKRPPRLPRPRPRPYKAPRP | -0.0235
RRIRKRPPRLPRPRPRPYLHPRP | -0.31
RRIRKRPPRLPRPRPRPYLLPRP | -0.525
RRIRKRPPRLPRPRPRPYLWPRP | 0.125
RRIRKRPPRLPRPRPRPYMFPRP | -0.109
RRIRKRPPRLPRPRPRPYNDPRP | -0.00691
RRIRKRPPRLPRPRPRPYNHPRP | -0.0988
RRIRKRPPRLPRPRPRPYNPPRP | -1.13
RRIRKRPPRLPRPRPRPYPQPRP | 0.0235
RRIRKRPPRLPRPRPRPYQNPRP | -0.198
RRIRKRPPRLPRPRPRPYQTPRP | 0.0193
RRIRKRPPRLPRPRPRPYRDPRP | -0.0176
RRIRKRPPRLPRPRPRPYRVPRP | -0.0373
RRIRKRPPRLPRPRPRPYVAPRP | 0.111
RRIRKRPPRLPRPRPRPYVDPRP | -0.24
RRIRKRPPRLPRPRPRPYVPPRP | -0.423
RRIRKRPPRLPRPRPRPYWQPRP | -0.0316
RRIRKRPPRLPRPRPRPYWYPRP | -0.667
RRIRKRPPRLPRPRPRPYYGPRP | -0.101
RRIRKRPPRLPRPRPRPYYIPRP | -0.372
RRIRLRPPRLPRPRPRPAAQPRP | 1.25
RRIRLRPPRLPRPRPRPACEPRP | 0.317
